Measured values reported in US20210047420A1 (TUSK THERAPEUTICS, published 2021).
Positions count from the first letter of the chain named. Where two headings read alike, the source gives them in different places. Blank lines part the entries; values can stand above or below the binder they belong to.

What was measured:
[1] = target: T1, recombinant human CD25 his tagged (UniProt P01589 22-240); experiment: SPR (Biacore 2000)
T1 chain: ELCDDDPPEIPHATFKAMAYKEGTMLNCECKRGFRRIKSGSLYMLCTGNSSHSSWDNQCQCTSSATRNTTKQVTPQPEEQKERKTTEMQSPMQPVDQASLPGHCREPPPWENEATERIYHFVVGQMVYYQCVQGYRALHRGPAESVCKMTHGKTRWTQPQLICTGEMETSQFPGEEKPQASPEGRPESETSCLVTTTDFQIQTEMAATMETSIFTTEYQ

[2] = target: T1, recombinant human CD25 his tagged; experiment: SPR (Biacore 2000)
[3] = target: T1, recombinant human CD25 his tagged; experiment: SPR (Biacore 2000)
[4] = target: T1, recombinant human CD25 his tagged; experiment: SPR (Biacore 2000)
[5] = target: T2, recombinant human CD25 his tagged (human, UniProt P01589 22-240, limits assumed); experiment: Octet sequential binding, rhCD25 his tagged on Ni-NTA biosensors, first antibody
T2 construct: also called rhCD25 his tagged; rhCD25; not shown: his tag
T2 sequence: T1 chain

B2: Antibody 5 (antibody, V domains shown)
VH: QVQLQESGPGLVKPSETLSLTCTVSGFSLTSYGIQWVRQPPGKGLEWIGVIWAGGSTNYNSALMSRVTISKDNSKSQFSLKLSSVTAADTAVYYCARAYGYDGSWLAYWGQGTLVTVSS
VL: EIVLTQSPATLSLSPGERATLSCRASSSVSYMHWYQQKPGQAPRPLIFATSNLASGIPARFSGSGSGTDFTLTISSLEPEDFAVYYCQQWSSNPPTFGGGTKLEIK
Kd [2]: 2.6 nM

B3: Antibody 4 (antibody, V domains shown)
VH: B2 VH with V37I, S76N
VL: QIQLTQSPSSLSASVGDRVTITCRASSSVSYMHWYQQKPGKSPKPLIFATSNLASGVPSRFSGSGSGTDYTLTISSLQPEDFATYYCQQWSSNPPTFGGGTKLEIK
Kd [2]: 1.1 nM

B5: Antibody 3 (antibody, V domains shown)
VH: B2 VH with V37I, S76N
VL: B3 VL with Q1D, L4M, S42A
Kd [4]: 0.3 nM

B7: Antibody 1 (antibody, V domains shown)
VH: B2 VH with V37I, S76N
VL: B2 VL
Kd [4]: 1.2 nM

B10: Antibody 2 (antibody, V domains shown)
VH: B2 VH with V37I, S76N
VL: B2 VL with E1Q, F70Y
Kd [4]: 4.8 nM

Continued, values first:

Kd [1]: 2.1 nM
B1: Antibody 7 (antibody, V domains shown)
VH: B2 VH
VL: B3 VL with Q1D, L4M, S42A

Kd [3]: 10.2 nM
B4: Antibody 11 (antibody, V domains shown)
VH: QVQLVESGGGVVQPGGSLRLSCAVSGFSLTSYGIQWVRQAPGKGLEWVSVIWAGGSTNYNSALMSRFTISKDNSKSTLYLQMNSLRAEDTAVYYCARAYGYDGSWLAYWGQGTLVTVSS
VL: B3 VL with Q1D, L4M, S42A

Kd [2]: 2.9 nM
B6: Antibody 6 (antibody, V domains shown)
VH: B2 VH
VL: B2 VL with E1Q, F70Y

Kd [1]: 1.7 nM
B8: Antibody 8 (antibody, V domains shown)
VH: B2 VH
VL: B3 VL

Kd [3]: 6.9 nM
B9: Antibody 12 (antibody, V domains shown)
VH: B4 VH
VL: B3 VL

Kd [3]: 7.6 nM
binding result [5]: binds
B11: Antibody 10 (antibody, human IgG1, V domains shown)
VH: B4 VH
VL: B2 VL with E1Q, F70Y
notes: also called Ab10; Antibody 10-hIgG1

Kd [1]: 8.8 nM
B12: Antibody 9 (antibody, V domains shown)
VH: B4 VH
VL: B2 VL
